Assay [1] addresses cynomolgus monkey PD-L1 (full length, on CHO cells) (cynomolgus monkey (Macaca fascicularis)), G7PSE7. Description: flow cytometry on CHO cells transfected with cynomolgus PD-L1, PE anti-human IgG secondary, MFI (PE).
In assay [2] the target is human PD-L1 (full length, on cells) (human), Q9NZQ7.
For assay [3] the target is unchanged. Description: flow cytometry on PC3 cells, PE anti-human IgG secondary, MFI (PE). Background: In flow cytometry, cells or beads pass a laser one at a time.
The target is the same in assay [4]. Description: flow cytometry on SK-MES-1 cells, PE anti-human IgG secondary, MFI (PE).
Assay [5] has the same target. Kind of assay: flow cytometry on MDA-MB-231 cells, PE anti-human IgG secondary, MFI (PE).

Where two headings read alike, the source gives them in different places.

The term EC50 (read off the curve) denotes the concentration needed to bring the measured effect to its halfway point.

human PD-L1 (full length, on cells) (human), Q9NZQ7, sequence (Q9NZQ7 19-290 limits assumed): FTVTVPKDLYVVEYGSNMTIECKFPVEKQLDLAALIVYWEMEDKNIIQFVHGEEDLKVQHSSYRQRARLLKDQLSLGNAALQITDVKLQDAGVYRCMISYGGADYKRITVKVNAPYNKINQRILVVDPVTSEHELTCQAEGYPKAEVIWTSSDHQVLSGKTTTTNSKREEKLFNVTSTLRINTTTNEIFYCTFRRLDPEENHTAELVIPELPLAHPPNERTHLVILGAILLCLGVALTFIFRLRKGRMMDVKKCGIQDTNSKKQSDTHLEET
cynomolgus monkey PD-L1 (full length, on CHO cells) (cynomolgus monkey (Macaca fascicularis)), G7PSE7, sequence (G7PSE7 entry or part of it): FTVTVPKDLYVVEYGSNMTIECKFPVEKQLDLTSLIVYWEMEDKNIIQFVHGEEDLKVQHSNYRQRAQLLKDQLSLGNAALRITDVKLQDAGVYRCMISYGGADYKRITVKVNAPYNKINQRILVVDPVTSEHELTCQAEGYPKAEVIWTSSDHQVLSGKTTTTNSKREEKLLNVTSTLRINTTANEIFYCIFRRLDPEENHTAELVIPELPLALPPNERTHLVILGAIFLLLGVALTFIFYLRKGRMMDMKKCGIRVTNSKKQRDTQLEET

B1: bsIgG1-b12-FEAL×547-FEAR (bispecific antibody, not shown: another chain or arm of the molecule)
heavy: EVQLLEPGGGLVQPGGSLRLSCEASGSTFSTYAMSWVRQAPGKGLEWVSGFSGSGGFTFYADSVRGRFTISRDSSKNTLFLQMSSLRAEDTAVYYCAIPARGYNYGSFQHWGQGTLVTVSSASTKGPSVFPLAPSSKSTSGGTAALGCLVKDYFPEPVTVSWNSGALTSGVHTFPAVLQSSGLYSLSSVVTVPSSSLGTQTYICNVNHKPSNTKVDKRVEPKSCDKTHTCPPCPAPEFEGGPSVFLFPPKPKDTLMISRTPEVTCVVVAVSHEDPEVKFNWYVDGVEVHNAKTKPREEQYNSTYRVVSVLTVLHQDWLNGKEYKCKVSNKALPAPIEKTISKAKGQPREPQVYTLPPSREEMTKNQVSLTCLVKGFYPSDIAVEWESNGQPENNYKTTPPVLDSDGSFFLYSRLTVDKSRWQQGNVFSCSVMHEALHNHYTQKSLSLSPGK
light: SYVLTQPPSVSVAPGQTARITCGGNNIGSKSVHWYQQKPGQAPVLVVYDDNDRPSGLPERFSGSNSGNTATLTISRVEAGDEADYYCQVWDSSSDHVVFGGGTKLTVLGQPKAAPSVTLFPPSSEELQANKATLVCLISDFYPGAVTVAWKADSSPVKAGVETTTPSKQSNNKYAASSYLSLTPEQWKSHRSYSCQVTHEGSTVEKTVAPTECS
modifications: not checked
Regarding B1, the EC50 (read off the curve) came to 0.2 µg/mL in assay [1]; 0.1 µg/mL in assay [2]; 0.05 µg/mL in assay [3]; 0.2 µg/mL in assay [4]; 0.06 µg/mL in assay [5].
